# Measured values from PMC6745524, “Diverse roles of TssA‐like proteins in the assembly of bacterial type VI secretion systems” (The EMBO Journal, 2019).
# B1: TssAVC (TssA of Vibrio cholerae, VCA0119), purified (natural protein)
# chain: MEMTEYRQCVAKPISSSNPVGERLVDHPLFDFIEDQMMKVGSLSHASVQWDEVEHSTLKLLGEQSKDIKLLVYLLQCLHNQVTPTRLITSFAVMSEFLNQYWNDSYPAPGPRGNLPRRKFFSQMAQRFTTVIEKFDFHHLDEADRQALQAAVEEWQQAVEKQGLSSELVESVVVRITAEIKRAEQRQQVTAQSSAERETPSAATPSPAASMVVDHSSDKAAKQTLLKVADFLAEQEFGIALSIRLRRFAVWGSITSLPDHKPDGETLLRGMQADRVKDYQDQLRHPDLALWRKVEQSLTMAPYWFEGQWMSYTIAQQLGKSDWCQAIAEETQQFLRRLPSLLELKFKGGEPFVSDSVKEWLASVGQSQGAAGQSVGGDWQEKRKEAFQLAKEGGIAVALSMLNDGLVSAVEPRDKFYWRLLSADLLRANHLDAMAGEQYQTLLNQVTTLSVPEWEPSLVEQIQRYTTSE
# notes: The His10 tag was removed with TEV protease; Only the CTD (G376-T466) is built in the atomic model; also called TsaC (proposed name); not shown: His10, N-terminal, cleaved; copies: 12
# Molecular target: the molecule itself
# Experiment: cryo-EM structure
protein,measurement,value
B1,stoichiometry N,12
